Results: publication PMC10136361, “Inhibition Analysis and High-Resolution Crystal Structure of Mus musculus Glutathione Transferase P1-1” (Biomolecules, 2023)

Molecular target: the molecule itself
Test: crystal structure; co-crystallised with 2.5 mM Nb-GSH, hanging drop vapor diffusion, 0.1 M Tris-HCl pH 8.0, PEG 6000 20% (w/v), 0.2 M calcium chloride; data to 1.28 Å at 100 K; two molecules in the asymmetric unit

B1: Mus musculus glutathione transferase P1-1 (enzyme, UniProt P19157 1-210, looked up)
chain: MPPYTIVYFPVRGRCEAMRMLLADQGQSWKEEVVTIDTWMQGLLKPTCLYGQLPKFEDGDLTLYQSNAILRHLGRSLGLYGKNQREAAQMDMVNDGVEDLRGKYVTLIYTNYENGKNDYVKALPGHLKPFETLLSQNQGGKAFIVGDQISFADYNLLDLLLIHQVLAPGCLDNFPLLSAYVARLSARPKIKAFLSSPEHVNRPINGNGKQ
notes: Glutathione S-transferase P1, Mus musculus, cloned from cDNA by PCR after GenBank BC061109.1; also called MmGSTP1-1; GSTP1-1 from Mus musculus
- binding result: binds
